Reference: PMC5020537, “A lack of peptide binding and decreased thermostability suggests that the CASKIN2 scaffolding protein SH3 domain may be vestigial” (BMC Structural Biology, 2016)
Where “and” joins values, the source holds several entries; their conditions need not be identical. Identical values can stand only once.

Columns and labels:
[1] = target: T1, human CASKIN2 SH3 domain (aa. 284-348), wild type (human, UniProt Q8WXE0 284-348); experiment: other fluorescence titration; peptide titrated into 1 μM SH3 domain; 10 mM Tris-HCl, pH 7.5, 150 mM NaCl, 0.05 % sodium azide; intrinsic tryptophan fluorescence, excitation 280 nm, emission 340 nm; fitted to a 1:1 protein to peptide complex; conditions: both partners purified
T1 construct: CASKIN2, human, SH3 domain, residues 284-348, UniProt Q8WXE0; Cloned into BamHI/XhoI of pGEX4T2; Isotopically labelled (15N and/or 13C) for NMR; also called wild type CASKIN2 SH3 domain; WT

[2] = target: T2, CASKIN2 SH3 domain SH3-6x mutant (K290Y, H296E, A300E, R319W, Y336L, I341F) (human, UniProt Q8WXE0 284-348, K290Y | H296E | A300E | R319W | Y336L | I341F); experiment: as above; conditions: both partners purified
T2 construct: Made by Quikchange from the wild type construct; PDB 2KE9 is the wild type parent; also called 6x CASKIN-SH3 domain mutant
T2 sequence (Q8WXE0 284-348 K290Y/H296E/A300E/R319W/Y336L/I341F): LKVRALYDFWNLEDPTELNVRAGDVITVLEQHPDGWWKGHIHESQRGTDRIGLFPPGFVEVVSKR

T1 sequence (Q8WXE0 284-348): as the sequence (Q8WXE0 284-348 K290Y/H296E/A300E/R319W/Y336L/I341F) above, with Y7K, E13H, E17A, W36R, L53Y, F58I counted along it

B1: UBPY peptide YTPMVRENKPP (peptide)
peptide: YTPMVRENKPP
notes: peptide derived from the protein UBPY, corresponding to the UBPY ligand in the STAM2 SH3 domain structure PDB 1UJ0; contains an RxxKP motif; also called Class-III UBPY peptide; STAM2 ligand; source: synthetic peptide (Canpeptide, Montreal; > 90 % purity)
Kd [1]: 39000 ± 6000 nM
Kd [2]: 460 nM and 220 nM
